Values quoted from earlier work in article PMC2734106.

What was measured:
ubiquitin (Homo sapiens) = ubiquitin (Homo sapiens) (UniProt P0CG47)
[1] = target: K48-linked tetraubiquitin (Homo sapiens) (UniProt P0CG47)

USP5, sequence (P45974 2-858): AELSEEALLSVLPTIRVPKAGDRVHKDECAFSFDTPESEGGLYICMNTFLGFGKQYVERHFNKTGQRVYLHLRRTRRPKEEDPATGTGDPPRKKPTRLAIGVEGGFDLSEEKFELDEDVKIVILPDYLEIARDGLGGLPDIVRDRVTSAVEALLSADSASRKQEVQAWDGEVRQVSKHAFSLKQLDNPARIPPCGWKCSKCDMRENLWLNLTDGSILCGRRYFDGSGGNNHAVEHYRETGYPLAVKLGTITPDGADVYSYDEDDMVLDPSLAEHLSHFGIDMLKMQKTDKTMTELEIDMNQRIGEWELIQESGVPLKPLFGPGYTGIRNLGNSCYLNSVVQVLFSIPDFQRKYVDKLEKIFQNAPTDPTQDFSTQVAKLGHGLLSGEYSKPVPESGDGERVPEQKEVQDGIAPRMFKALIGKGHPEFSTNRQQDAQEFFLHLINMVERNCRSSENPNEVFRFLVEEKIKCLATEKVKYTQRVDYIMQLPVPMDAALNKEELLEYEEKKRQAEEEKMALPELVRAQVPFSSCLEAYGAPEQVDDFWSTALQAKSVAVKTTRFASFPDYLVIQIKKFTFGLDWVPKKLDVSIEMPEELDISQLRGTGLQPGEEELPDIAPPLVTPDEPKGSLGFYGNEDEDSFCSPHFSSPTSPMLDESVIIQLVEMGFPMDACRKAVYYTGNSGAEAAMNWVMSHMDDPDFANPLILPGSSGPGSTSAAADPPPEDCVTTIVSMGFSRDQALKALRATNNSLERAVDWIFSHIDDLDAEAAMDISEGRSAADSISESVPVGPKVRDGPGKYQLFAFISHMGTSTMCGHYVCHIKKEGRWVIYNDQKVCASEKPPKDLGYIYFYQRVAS

**Q.** For USP5 (from UniProt P45974), which Kd (ubiquitin (Homo sapiens)) is on record?
**A.** 50 nM

**Q.** What about the Kd [1] of the same substance?
**A.** < 1 nM
